Consider three molecules from patent publication US20090186337A1 (INSTITUT NATIONAL DE LA RECHERCHE AGRONOMIQUE INRA, published 2009).

The target of assay [1] is T1, N protein (nucleocapsid protein) of human RSV Long strain (human RSV Long strain, UniProt P03418 1-391).
T1 construct: also called native N protein
Nature of the assay: coexpression in E. coli, copurification of N with the P fragment.

For assay [2], the target named is N protein deleted of 27 residues at the C-terminal end (human RSV Long strain, UniProt P03418 1-364). Nature of the assay: interaction of truncated N with P (method not detailed).
Assay [3] concerns the target T2, N protein of the measles virus (measles virus strain Edmonston B, UniProt P0DXN6 1-525).
T2 sequence: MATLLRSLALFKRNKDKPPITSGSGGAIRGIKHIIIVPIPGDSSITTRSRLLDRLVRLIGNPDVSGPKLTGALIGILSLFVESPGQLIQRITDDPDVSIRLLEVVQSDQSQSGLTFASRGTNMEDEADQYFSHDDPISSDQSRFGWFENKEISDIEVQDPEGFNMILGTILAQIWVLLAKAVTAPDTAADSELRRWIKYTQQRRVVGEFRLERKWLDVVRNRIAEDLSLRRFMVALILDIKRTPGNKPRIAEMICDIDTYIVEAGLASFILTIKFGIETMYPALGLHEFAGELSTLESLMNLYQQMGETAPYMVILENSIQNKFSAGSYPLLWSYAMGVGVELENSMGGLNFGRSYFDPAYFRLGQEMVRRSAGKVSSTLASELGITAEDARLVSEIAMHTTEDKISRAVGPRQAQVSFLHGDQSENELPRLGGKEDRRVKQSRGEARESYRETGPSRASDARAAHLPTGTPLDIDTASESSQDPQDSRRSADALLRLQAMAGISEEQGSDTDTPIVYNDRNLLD
Nature of the assay: coexpression in E. coli and copurification of N with the P fragment.

B1: protein P (fragment 161-241) fused to GST (other)
chain: SARDGIRDAMVGLREEMIEKIRTEALMTNDRLEAMARLRNEESEKMAKDTSDEVSLNPTSEKLNNLLEGNDSDNDLSLEDF
notes: not shown: GST carrier at the N end (from pGEX-4T-3) and the vector-encoded junction with the thrombin site
B1: the binding result in assay [1] is listed as “binds”.

B2: P protein (phosphoprotein) of human RSV Long strain (other)
chain: B1 chain
B2: the binding result in assay [2] is listed as “no binding”.

B3: P protein of the measles virus deleted of its N-terminal part as far as residue 456 (inclusive) (other)
chain: GPASRSVIRSIIKSSRLEEDRKRYLMTLLDDIKGANDLAKFHQMLMKIIMK
notes: also called PΔ457N
Regarding B3, the binding result in assay [3] is on record as “no binding”.
